Test results taken from patent publication US20090324590A1.

Biological target: recombinant wild type myostatin
Experiment: cell-based or functional assay

p-FoxO1 expression (Western blot, normalised to total FoxO1) in C2C12 myotubes; myostatin 6 ug/mL with 300 at 30, 60, 90 or 120 ug/mL for 24 hours; concentration of 300 giving maximal rescue: 90 µg/mL
Substance: myostatin antagonist 300 (amino acids 267-300 of bovine myostatin with N-terminal and C-terminal tags) (peptide)
